Where a chain is given by its changes, count along the chain named.
B1: mKO-FM14-N-LZA (other)
chain: MVSVIKPEMKMRYYMDGSVNGHEFTIEGEGTGRPYEGHQEMTLRVTMAEGGPMPFAFDLVSHVFCYGHRVFTKYPEEIPDYFKQAFPEGLSWERSLEFEDGGSASVSAHISLRGNTFYHKSKFTGVNFPADGPIMQNQSVDWEPSTEKITASDGVLKGDVTMYLKLEGGNSADGGGGSGGGGSGGGGSIHHTGGRAQLEKELQALEKENAQLEWELQALEKELAQK
notes: Made by in vitro translation; also called fusion of the N-terminal fragment (1st-168th) of mKO-FM14 with leucine zipper acidic (LZA)
B2: mKO-FM24-N-LZA (other)
chain: B1 chain with V70T
notes: N-terminal fragment (1-168) of mKO-FM24 (threonine at position 70) fused with LZA
B3: mKO-FM5-N-LZA (other)
chain: B1 chain with V70A
notes: N-terminal fragment (1-168) of mKO-FM5 (alanine at position 70) fused with LZA
B4: mKO-FM3-N-LZA (other)
chain: B1 chain with V70S
notes: N-terminal fragment (1-168) of mKO-FM3 (serine at position 70) fused with LZA
B5: mKO-FM20-N-LZA (other)
chain: B1 chain with V70C
notes: N-terminal fragment (1-168) of mKO-FM20 (cysteine at position 70) fused with LZA
B6: mKO-FM14-N (other)
chain: MVSVIKPEMKMRYYMDGSVNGHEFTIEGEGTGRPYEGHQEMTLRVTMAEGGPMPFAFDLVSHVFCYGHRVFTKYPEEIPDYFKQAFPEGLSWERSLEFEDGGSASVSAHISLRGNTFYHKSKFTGVNFPADGPIMQNQSVDWEPSTEKITASDGVLKGDVTMYLKLEG
notes: Fragment without linker and leucine zipper, made by in vitro translation; also called N-terminal fragment from the 1st to the 168th of mKO-FM14; negative control without leucine zipper

Legend:
[1] = target: T1, mKO-FM14-C-LZB; test: split fluorescent protein complementation in vitro, in vitro translated proteins mixed in PBS at 37° C., fluorescence after 3, 5 and 7 hours
T1 construct: Made by in vitro translation; also called fusion of the C-terminal fragment (169th-218th) of mKO-FM14 with leucine zipper basic (LZB)
T1 chain: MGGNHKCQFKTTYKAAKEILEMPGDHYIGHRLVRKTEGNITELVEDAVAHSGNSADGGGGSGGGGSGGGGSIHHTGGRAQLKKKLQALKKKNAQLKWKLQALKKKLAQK
Experimental: (§1) 20 μl of each mKO-FM14-N-LZA and mKO-FM14-C-LZB which was synthesized by in vitro translation was added to 1000 μl of PBS and the total volume was made up to 1040 μl. The mixture was left standing at 37° C. and the fluorescence measurements were carried out every 2 hours (after 3, 5 and 7 hours from the mixing) by a F-2500 (HITACHI). The method of measurement was by the double wavelength excitation and a single wavelength measurement (excitation spectra at 580 nm, green component and orange component were set at 500 nm and 548 nm, respectively) or by the double wavelength excitation and double wavelength measurement (green fluorescence at 509 nm by excitation by 470 nm and orange fluorescence at 560 nm by excitation by 520 nm were obtained) (FIG. 2). Also, as negative controls, 20 μl of each mKO-FM14-N and mKO-FM14-C which was synthesized by in vitro translation and to which no proteins for interaction were fused was added to 1000 μl of PBS and the total volume was made up to 1040 μl. The mixture was left standing at 37° C. and the fluorescence measurements were carried out every 2 hours (after 3, 5 and 7 hours from the mixing) by a F-2500 (HITACHI).

[2] = target: T1, mKO-FM14-C-LZB; test: split fluorescent protein complementation in vitro, fluorescence from 1 to 12 hours after mixing
Experimental: as §1, with “The mixture was left standing at 37° C. and the fluorescence measurements were carried out every 2 hours (after 3, 5 and 7 hours from the mixing) by a F-2500 (HITACHI).” left out
By substituting the 70th proline (P) of mKO with various amino acids, variants were obtained in which the ratio of green fluorescence and orange fluorescence was changed according to the passage of time. The variant in which 70th proline (P) was substituted with alanine (A), serine (S), cysteine (C), threonine (T), and valine (V) was designated as mKO-FM5, mKO-FM3, mKO-FM20, mKO-FM24 and mKO-FM14, respectively. Each variant was similarly split into two molecules and similarly fused with LZA and LZB to carry out analyses.

[3] = target: T2, mKO-FM14-C; test: split fluorescent protein complementation in vitro, 20 µl of each in vitro translated fragment in PBS at 37° C., fluorescence after 3, 5 and 7 hours
T2 construct: Fragment without linker and leucine zipper, made by in vitro translation; also called C-terminal fragment from 169th to 218th of mKO-FM14; negative control without leucine zipper
T2 chain: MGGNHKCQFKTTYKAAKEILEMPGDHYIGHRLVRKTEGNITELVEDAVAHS
Experimental: as §1

Binder	binding result [2]	other results
B1	–	binding result [1]: binds
B2	binds	–
B3	binds	–
B4	binds	–
B5	binds	–
B6	–	binding result [3]: no binding

Reference: patent US20070031912A1 (RIKEN, published 2007)
